B1: EHEE_rd2_0196 (parent)
chain: TETRTFDSEEEAKKAQKEAEKQGRTVTITRRDDRWEVRFD

Variants of: B1
Experiment: folding stability dG (cDNA display proteolysis); higher = more stable
Settings: PBS, room temperature

Point of comparison: TETRHFDSEEEAKKAQKEAEKQGRTVTITRRDDRWEVRFD [T5H], “folding stability dG” value 2.71 kcal/mol. Against it:
- TETRVFDSEEEAKKAQKEAEKQGRTVTITRRDDRWEVRFD [T5V] — higher, 3.37 kcal/mol
- TETRKFDSEEEAKKAQKEAEKQGRTVTITRRDDRWEVRFD [T5K] — lower, 2.09 kcal/mol
- TETRDFDSEEEAKKAQKEAEKQGRTVTITRRDDRWEVRFD [T5D] — lower, 2.04 kcal/mol
- TETRFFDSEEEAKKAQKEAEKQGRTVTITRRDDRWEVRFD [T5F] — higher, 3.75 kcal/mol
- TETRSFDSEEEAKKAQKEAEKQGRTVTITRRDDRWEVRFD [T5S] — higher, 2.81 kcal/mol
- TETRQFDSEEEAKKAQKEAEKQGRTVTITRRDDRWEVRFD [T5Q] — lower, 2.63 kcal/mol
- TETRGFDSEEEAKKAQKEAEKQGRTVTITRRDDRWEVRFD [T5G] — lower, 1.73 kcal/mol
- TETRRFDSEEEAKKAQKEAEKQGRTVTITRRDDRWEVRFD [T5R] — lower, 2.35 kcal/mol
- TETRWFDSEEEAKKAQKEAEKQGRTVTITRRDDRWEVRFD [T5W] — higher, 4.03 kcal/mol
- TETRYFDSEEEAKKAQKEAEKQGRTVTITRRDDRWEVRFD [T5Y] — higher, 3.96 kcal/mol
- TETRAFDSEEEAKKAQKEAEKQGRTVTITRRDDRWEVRFD [T5A] — lower, 2.43 kcal/mol
- TETRIFDSEEEAKKAQKEAEKQGRTVTITRRDDRWEVRFD [T5I] — higher, 3.42 kcal/mol
- TETRPFDSEEEAKKAQKEAEKQGRTVTITRRDDRWEVRFD [T5P] — lower, 1.24 kcal/mol
- TETRCFDSEEEAKKAQKEAEKQGRTVTITRRDDRWEVRFD [T5C] — lower, 2.5 kcal/mol
- TETRMFDSEEEAKKAQKEAEKQGRTVTITRRDDRWEVRFD [T5M] — higher, 3.42 kcal/mol
- TETRNFDSEEEAKKAQKEAEKQGRTVTITRRDDRWEVRFD [T5N] — lower, 2.3 kcal/mol
- TETRLFDSEEEAKKAQKEAEKQGRTVTITRRDDRWEVRFD [T5L] — higher, 3.46 kcal/mol
- TETREFDSEEEAKKAQKEAEKQGRTVTITRRDDRWEVRFD [T5E] — lower, 2.57 kcal/mol
- QETRTFDSEEEAKKAQKEAEKQGRTVTITRRDDRWEVRFD [T1Q] — higher, 2.98 kcal/mol
- PETRTFDSEEEAKKAQKEAEKQGRTVTITRRDDRWEVRFD [T1P] — higher, 3.02 kcal/mol
- FETRTFDSEEEAKKAQKEAEKQGRTVTITRRDDRWEVRFD [T1F] — higher, 3.38 kcal/mol
- NETRTFDSEEEAKKAQKEAEKQGRTVTITRRDDRWEVRFD [T1N] — higher, 2.93 kcal/mol
- LETRTFDSEEEAKKAQKEAEKQGRTVTITRRDDRWEVRFD [T1L] — higher, 3.04 kcal/mol
- METRTFDSEEEAKKAQKEAEKQGRTVTITRRDDRWEVRFD [T1M] — higher, 3.12 kcal/mol
- RETRTFDSEEEAKKAQKEAEKQGRTVTITRRDDRWEVRFD [T1R] — higher, 2.81 kcal/mol
- HETRTFDSEEEAKKAQKEAEKQGRTVTITRRDDRWEVRFD [T1H] — higher, 3.05 kcal/mol
- YETRTFDSEEEAKKAQKEAEKQGRTVTITRRDDRWEVRFD [T1Y] — higher, 3.48 kcal/mol
- EETRTFDSEEEAKKAQKEAEKQGRTVTITRRDDRWEVRFD [T1E] — higher, 2.93 kcal/mol
- GETRTFDSEEEAKKAQKEAEKQGRTVTITRRDDRWEVRFD [T1G] — higher, 2.96 kcal/mol
- AETRTFDSEEEAKKAQKEAEKQGRTVTITRRDDRWEVRFD [T1A] — higher, 3.08 kcal/mol
- VETRTFDSEEEAKKAQKEAEKQGRTVTITRRDDRWEVRFD [T1V] — higher, 3.21 kcal/mol
- IETRTFDSEEEAKKAQKEAEKQGRTVTITRRDDRWEVRFD [T1I] — higher, 3.08 kcal/mol
- WETRTFDSEEEAKKAQKEAEKQGRTVTITRRDDRWEVRFD [T1W] — higher, 3.67 kcal/mol
- SETRTFDSEEEAKKAQKEAEKQGRTVTITRRDDRWEVRFD [T1S] — higher, 3.13 kcal/mol
- CETRTFDSEEEAKKAQKEAEKQGRTVTITRRDDRWEVRFD [T1C] — higher, 2.81 kcal/mol
- DETRTFDSEEEAKKAQKEAEKQGRTVTITRRDDRWEVRFD [T1D] — higher, 2.95 kcal/mol
- KETRTFDSEEEAKKAQKEAEKQGRTVTITRRDDRWEVRFD [T1K] — higher, 2.76 kcal/mol
- TERRTFDSEEEAKKAQKEAEKQGRTVTITRRDDRWEVRFD [T3R] — lower, 2.54 kcal/mol
- TEKRTFDSEEEAKKAQKEAEKQGRTVTITRRDDRWEVRFD [T3K] — lower, 2.48 kcal/mol
- TEQRTFDSEEEAKKAQKEAEKQGRTVTITRRDDRWEVRFD [T3Q] — lower, 2.46 kcal/mol
- TELRTFDSEEEAKKAQKEAEKQGRTVTITRRDDRWEVRFD [T3L] — higher, 3.15 kcal/mol
- TEWRTFDSEEEAKKAQKEAEKQGRTVTITRRDDRWEVRFD [T3W] — higher, 3.06 kcal/mol
- TEIRTFDSEEEAKKAQKEAEKQGRTVTITRRDDRWEVRFD [T3I] — higher, 3.35 kcal/mol
- TEARTFDSEEEAKKAQKEAEKQGRTVTITRRDDRWEVRFD [T3A] — lower, 2.66 kcal/mol
- TEFRTFDSEEEAKKAQKEAEKQGRTVTITRRDDRWEVRFD [T3F] — higher, 3.2 kcal/mol
- TEGRTFDSEEEAKKAQKEAEKQGRTVTITRRDDRWEVRFD [T3G] — lower, 2.17 kcal/mol
- TEMRTFDSEEEAKKAQKEAEKQGRTVTITRRDDRWEVRFD [T3M] — higher, 3.03 kcal/mol
- TEHRTFDSEEEAKKAQKEAEKQGRTVTITRRDDRWEVRFD [T3H] — lower, 2.55 kcal/mol
- TEVRTFDSEEEAKKAQKEAEKQGRTVTITRRDDRWEVRFD [T3V] — higher, 3.38 kcal/mol
- TEDRTFDSEEEAKKAQKEAEKQGRTVTITRRDDRWEVRFD [T3D] — lower, 1.93 kcal/mol
- TEYRTFDSEEEAKKAQKEAEKQGRTVTITRRDDRWEVRFD [T3Y] — higher, 3.11 kcal/mol
- TECRTFDSEEEAKKAQKEAEKQGRTVTITRRDDRWEVRFD [T3C] — higher, 3.22 kcal/mol
- TEPRTFDSEEEAKKAQKEAEKQGRTVTITRRDDRWEVRFD [T3P] — higher, 2.73 kcal/mol
- TENRTFDSEEEAKKAQKEAEKQGRTVTITRRDDRWEVRFD [T3N] — lower, 2.33 kcal/mol
- TEERTFDSEEEAKKAQKEAEKQGRTVTITRRDDRWEVRFD [T3E] — lower, 2.08 kcal/mol
- TESRTFDSEEEAKKAQKEAEKQGRTVTITRRDDRWEVRFD [T3S] — lower, 2.62 kcal/mol
- TETATFDSEEEAKKAQKEAEKQGRTVTITRRDDRWEVRFD [R4A] — lower, 2.65 kcal/mol
- TETETFDSEEEAKKAQKEAEKQGRTVTITRRDDRWEVRFD [R4E] — lower, 2.36 kcal/mol
- TETMTFDSEEEAKKAQKEAEKQGRTVTITRRDDRWEVRFD [R4M] — higher, 3.24 kcal/mol
- TETVTFDSEEEAKKAQKEAEKQGRTVTITRRDDRWEVRFD [R4V] — higher, 2.99 kcal/mol
- TETSTFDSEEEAKKAQKEAEKQGRTVTITRRDDRWEVRFD [R4S] — lower, 2.3 kcal/mol

Reference: the MegaScale stability set (Tsuboyama et al. 2023)
